Experimental data: patent US20140093973A1 (BOARD OF REGENTS OF THE UNIVERSITY OF OKLAHOMA, published 2014)
Ends that are not written are not given here.

Experiments:
soluble HLA-A*2902 = target: T1, soluble HLA-A*2902 (human); assay: FP competition against 1.5 nM FITC-labeled P2(A*0101), 49.9 µg/ml sHLA A*2902T (1224)
T1 construct: Member of the panel of 53 single-specificity sHLA

soluble HLA-A*0101 [1] = target: T2, soluble HLA-A*0101 (human); assay: FP competition against 1.6 nM FITC-labeled P2(A*0101), 41.0 µg/ml sHLA A*0101T (C22)
T2 construct: Member of the panel of 53 single-specificity sHLA

soluble HLA-A*0301 [2] = target: T3, soluble HLA-A*0301 (human); assay: FP competition against 1.8 nM FITC-labeled P1(A*0301), 42.1 µg/ml sHLA A*0301T (2798)
T3 construct: Member of the panel of 53 single-specificity sHLA

B*0702T = B*0702T (human, UniProt P61769); assay: FP competition against 1.9 nM FITC-labeled P1(B*0702), 40 µg/ml sHLA B*0702T (955)
soluble HLA-B*4002 = target: T4, soluble HLA-B*4002 (human); assay: FP screen
T4 construct: Member of the panel of 53 single-specificity sHLA

soluble HLA-A*2601 = target: T5, soluble HLA-A*2601 (human); assay: FP screen
T5 construct: Member of the panel of 53 single-specificity sHLA

[3] = target: T6, soluble HLA-A*6801 (sHLA-A*6801) (human); assay: FP screen
T6 construct: Recombinant soluble class I with endogenous peptides, made as m1

[4] = target: T7, soluble HLA-B*2705 (sHLA-B*2705) (human); assay: FP screen
T7 construct: Recombinant soluble class I with endogenous peptides, made as m1; negative control

soluble HLA-A*3002 = target: T8, soluble HLA-A*3002 (human); assay: FP screen
T8 construct: Member of the panel of 53 single-specificity sHLA

soluble HLA-B*1801 = target: T9, soluble HLA-B*1801 (human); assay: FP screen
T9 construct: Member of the panel of 53 single-specificity sHLA

soluble HLA-B*4402 = target: T10, soluble HLA-B*4402 (human); assay: FP screen
T10 construct: Member of the panel of 53 single-specificity sHLA

[5] = target: soluble HLA-A*0201 (sHLA-A*0201) (human); assay: FP screen
soluble HLA-A*3402 = target: T11, soluble HLA-A*3402 (human); assay: FP screen
T11 construct: Member of the panel of 53 single-specificity sHLA

soluble HLA-B*1302 = target: T12, soluble HLA-B*1302 (human); assay: FP screen
T12 construct: Member of the panel of 53 single-specificity sHLA

soluble HLA-A*0301 [6] = target: T3, soluble HLA-A*0301; assay: FP screen
[7] = target: T13, soluble HLA-A*4301 (sHLA-A*4301) (human); assay: FP screen
T13 construct: Recombinant soluble class I with endogenous peptides, made as m1

soluble HLA-A*3601 = target: T14, soluble HLA-A*3601 (human); assay: FP screen
T14 construct: Member of the panel of 53 single-specificity sHLA

soluble HLA-B*1512 = target: T15, soluble HLA-B*1512 (human); assay: FP screen
T15 construct: Member of the panel of 53 single-specificity sHLA

soluble HLA-A*0101 [8] = target: T2, soluble HLA-A*0101; assay: FP screen
[9] = target: T16, soluble HLA-A*1102 (sHLA-A*1102) (human, UniProt P04439 25-308; P61769 21-119); assay: FP screen
T16 construct: Recombinant soluble class I with endogenous peptides, made as m1

soluble HLA-A*2402 = target: T17, soluble HLA-A*2402 (human); assay: FP screen of 53 sHLA with FITC-peptide
T17 construct: Member of the panel of 53 single-specificity sHLA

Binder ATDFKFAMY [C1(A*0101)] has an IC50 (soluble HLA-A*2902) of 8.63 µM and an IC50 (soluble HLA-A*0101 [1]) of 1570 nM.

For SLFRAVITK [C2(A*0301)], the IC50 (soluble HLA-A*0301 [2]) was 518 nM.

LVMAPRTVL was tested, and the IC50 (B*0702T) was 276 nM.

KYPENKFLL (also: FITC-labeled, position not given here) [KYPENKFLL, FITC-labeled A24-like peptide]: no binding (tested: 100 ug/ml sHLA) (soluble HLA-B*4002); no binding (tested: 100 ug/ml sHLA) (soluble HLA-A*2601); no binding (tested: 100 ug/ml sHLA) [3]. KYPENKFLL (also: FITC-labeled, position not given here) [KYPENKFLL, FITC-labeled A24-like peptide]: no binding (tested: 100 ug/ml sHLA) [4]; no binding (tested: 100 ug/ml sHLA) (soluble HLA-A*3002); no binding (tested: 100 ug/ml sHLA) (soluble HLA-B*1801). KYPENKFLL (also: FITC-labeled, position not given here) [KYPENKFLL, FITC-labeled A24-like peptide]: no binding (tested: 100 ug/ml sHLA) (soluble HLA-B*4402); no binding (tested: 100 ug/ml sHLA) [5]; no binding (tested: 100 ug/ml sHLA) (soluble HLA-A*3402). KYPENKFLL (also: FITC-labeled, position not given here) [KYPENKFLL, FITC-labeled A24-like peptide]: no binding (tested: 100 ug/ml sHLA) (soluble HLA-B*1302); no binding (tested: 100 ug/ml sHLA) (soluble HLA-A*0301 [6]); no binding (tested: 100 ug/ml sHLA) [7]. KYPENKFLL (also: FITC-labeled, position not given here) [KYPENKFLL, FITC-labeled A24-like peptide]: no binding (tested: 100 ug/ml sHLA) (soluble HLA-A*3601); no binding (tested: 100 ug/ml sHLA) (soluble HLA-B*1512); no binding (tested: 100 ug/ml sHLA) (soluble HLA-A*0101 [8]). KYPENKFLL (also: FITC-labeled, position not given here) [KYPENKFLL, FITC-labeled A24-like peptide]: no binding (tested: 100 ug/ml sHLA) [9]; binds (soluble HLA-A*2402).
